Measurements reported in US7371842B2, “Polynucleotide encoding a 35 KDA protein thats binds to WF00144” (Astellas Pharma Inc., priority 2002, dated 2008).

Experiment: Aldol cleavage reaction of fructose 1,6-bisphosphate, coupled with TIM/G3PDH, NADH 340 nm
Assay type: biochemical
Conditions: F1,6P2 cleaved, 37° C., 30 minutes, pH 8.0
Method: The aldolase activity of the human 35 kd protein was determined as follows, according to the method described in a reference (Novel Biochemistry Experiment Lectures, Vol. 15, Metabolism Abnormality, p. 111, edit. Biochemical Society of Japan, publish. Tokyo Kagaku Dojin-sha, Sep. 22, 1992):
Conjugated with triose phosphate isomerase (TIM) and glycerol 3-phosphate dehydrogenase (G3PDH), the aldol cleavage reaction of fructose 1,6-bisphosphate (F1, 6P2) with the 35 kd protein was determined with NADH.
A reaction liquid having the composition mentioned below was prepared, and reacted at 37° C. for 30 minutes. The enzymatic reaction was monitored through the reduction in the 340 nm absorbance owing to the oxidation of NADH in the reaction liquid. The enzymatic reaction was indicated by the number of mols of F1, 6P2, per mg of the protein, cleaved within 1 minute (μmol/min/mg protein).
Reaction liquid 200 μl: 0.25 mM tris HCl buffer (pH 8.0), 0.15 M NaCl, 0.5 mM F1, 6P2 (from Sigma), human 35 kd protein, human liver TIM (500 μg/ml), rabbit skeletal muscle G3PDH (8 units/ml, from Sigma), 0.3 mM NADH (from Nakarai).
For comparison, a commercial product aldolase, Sigma's rabbit skeletal muscle aldolase (A-type aldolase), and an enzyme-free system were tested in the same manner.

B1: Human 35 kd protein: novel 35 kd protein, amino acid sequence SEQ ID NO: 2, expressed in E. coli and purified (protein, listed as Homo sapiens)
chain: MLGPQVWSSVRQGLSRSLSRNVGVWASGEGKKVDIAGIYPPVTTPFTATAEVDYGKLEENLHKLGTFPFRGFVVQGSNGEFPFLTSSERLEVVSRVRQAMPKNRLLLAGSGCESTQATVEMTVSMAQVGADAAMVVTPCYYRGRMSSAALIHHYTKVADLSPIPVVLYSVPANTGLDLPVDAVVTLSQHPNIVGMKDSGGDVTRIGLIVHKTRKQDFQVLAGSAGFLMASYALGAVGGVCALANVLGAQVCQLERLCCTGQWEDAQKLQHRLIEPNAAVTRRFGIPGLKKIMDWFGYYGGPCRAPLQELSPAEEEALRMDFTSNGWL
For B1, the “Aldolase Activity (μmol/min/mg protein)” value was 0.0034 μmol/min/mg protein.
